Target: patched (on patched-transfected EBNA-293 cells)
Test: FACS competition with Shh-Ig on patched-transfected EBNA-293 cells

| Substance | IC50 [µg/mL] |
| --- | --- |
| soluble human Sonic hedgehog N-terminal fragment (unmodified, produced in E. coli) (from UniProt Q14623 28-201) (ligand) | 0.15 |
| tethered human Sonic hedgehog (N-terminal palmitoyl, C-terminal cholesterol) purified from High Five insect cells (from UniProt Q14623 28-201) (ligand) | 0.4 |

Source: patent EP1577321A1
